Consider one molecule from paper PMC10328401 (Science Advances, 2023).

For the assay, the target named is T1, RsgI2-PD C-terminal fragment after autocleavage at Asn97-Pro98 (Clostridium thermocellum DSM 1313, UniProt A3DC27 98-259).
T1 sequence (looked up): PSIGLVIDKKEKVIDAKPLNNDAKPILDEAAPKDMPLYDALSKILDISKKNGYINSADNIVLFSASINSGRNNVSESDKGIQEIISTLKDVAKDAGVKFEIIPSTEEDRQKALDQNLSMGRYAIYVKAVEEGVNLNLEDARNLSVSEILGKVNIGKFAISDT
The experiment in a line: crystal structure.

On to SQEYAYIDVDIN (peptide, UniProt A3DC27 86-97, looked up) [RsgI2-PD N-terminal fragment after autocleavage at Asn97-Pro98 (β1 strand chain, twelve residues)], for which the binding result is recorded as “binds”.
